Assay results reported in the supplement of paper PMC10567573.
± gives the standard deviation.

Assay: protein stability index of a GFP-peptide fusion (GPS, HEK-293T) (PSI 1-6); higher = more stable
Details: c terminus: a fixed tail appended
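Also: 24-mer peptide tiles fused after GFP, lentivirally expressed, FACS-sorted into six equal bins by GFP/DsRed ratio, decoded by Illumina sequencing, PSI is the read-weighted mean bin number.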

Row | Sequence | protein stability index (treatment: DMSO) | protein stability index (treatment: MLN4924 1 uM, 8 h)
1 | DARYKLHHHLHKTLREITDQEHNV [TEKT4] | 3.77 ± 0.29 | 4.02 ± 0.14
2 | LHHKRLAKECMLQEENKSLREENK [CBY2] | 4.87 ± 0.39 | 4.89 ± 0.21
3 | SGRNGEVSLDISPDLPFQIKPSEN [PCDHGC5] | 4.47 ± 0.25 | 4.56 ± 0.26
4 | IMATLGFGDSPKAEKRQIGDQEGP [FBF1] | 4.37 ± 0.17 | 4.3 ± 0.12
5 | SRVAGFNPALQLILTRTDKTLNKK [TOR1AIP2] | 4.25 ± 0.3 | 4.33 ± 0.18
6 | FGELMRKLWNPRNFKAHVSPHEML [USP39] | 2.51 ± 0.43 | 2.25 ± 0.084
7 | EDVEDHYEMGEELGSGQFAIVRKC [DAPK3] | 5.06 ± 0.099 | 5.3 ± 0.35
8 | QLAKELGATYLELHSLDDFYIGKY [RHOBTB3] | 2.56 ± 0.56 | 2.33 ± 0.27
9 | VSLHDRIYVIGGYDGRSRLSSVEC [KLHL12] | 1.96 ± 0.16 | 2.19 ± 0.17
10 | QPIRGVEGSDYINASFIDGYRQQK [PTPRD] | 4.31 ± 0.27 | 4.37 ± 0.19
11 | YQELLGLSFEQMTDAHVWNKSVTL [NLN] | 2.37 ± 0.093 | 2.3 ± 0.28
12 | NYCLLFLIYTVMLAFRSGSDNLLV [SLC35F2] | 3.04 ± 0.44 | 3.29 ± 0.79
13 | FNPPPSRPLQVNTADHRIYSYVVS [FAF2] | 2.62 ± 0.29 | 2.92 ± 0.38
14 | LLQCLEDLDANLRKLNSRLFVIRG [CRY1] | 2.67 ± 0.25 | 2.68 ± 0.29
15 | ALAKKFIDKNTQLTLQVYREQADS [TRIM14] | 2.88 ± 0.31 | 3.09 ± 0.49
16 | KRRKSMSGASPKESTNPEKAHETL [CDC25A] | 5.24 ± 0.25 | 5.03 ± 0.23
17 | PDDVDYATNPHVKPPYSYATLICM [FOXJ1] | 2.22 ± 0.28 | 2.2 ± 0.28
18 | FQNRRMKHKRQMQDPQLHSPFSGS [VENTX] | 3.3 ± 0.38 | 3.48 ± 0.31
19 | ETYHQQGQCQVLVQRSPWLMMRMG [TCAP] | 2.18 ± 0.22 | 2.23 ± 0.35
20 | SSPVTTLTQTMHDLAGLGSETPKS [CDC25B] | 4.97 ± 0.31 | 5.13 ± 0.14
21 | EGREAPALVAAGGAPEDDEEDDGR [DENND6A] | 5.68 ± 0.29 | 5.72 ± 0.3
22 | CAGKAKRSGGHAPRVRELLLDALS [ESR2] | 2.38 ± 0.29 | 2.52 ± 0.25

Row | Sequence | protein stability index (treatment: DMSO) | protein stability index (treatment: MLN4924 1 uM, 8 h)
23 | GGRRRPPASSRNRSPSGSLRSARG [RBMY1A1] | 5.16 ± 0.28 | 5.2 ± 0.18
24 | LALSPDLSLSNATVLTRSLFLGRI [FANCE] | 2.35 ± 0.36 | 2.24 ± 0.3
25 | ATIVFATDFYLIFNDVAKFLKQGD [CMTM3] | 2.9 ± 0.91 | 2.77 ± 0.43
26 | PEISRIIVDPTTGKRYCRGKVLGK [PLK2] | 3.9 ± 0.22 | 4.04 ± 0.2
27 | DSDDDDDVAVTVDRDRFMDEFFEQ [STX1A] | 5.36 ± 0.49 | 5.43 ± 0.32
28 | VAVQEQEIARREKELEARVRKPAE [FLOT1] | 5.44 ± 0.42 | 5.31 ± 0.17
29 | QDPEGKGEQEHSQQKEEEEEMAVV [CHGA] | 5.43 ± 0.34 | 5.69 ± 0.13
30 | PAWYVAACRANVKSGAIMSALSDT [PPFIA4] | 2.58 ± 0.26 | 2.25 ± 0.39
31 | DTALLNLLPMLDALRFTADVRSVL [CTDNEP1] | 2.78 ± 0.48 | 2.58 ± 0.42
32 | ENIKGYYIIIVPLKKSRGKFIKPW [PTPRD] | 2.67 ± 0.86 | 1.86 ± 0.45
33 | MVHVARLLLLLLTFFLRTDAETPP [PTPRD] | 2.91 ± 0.44 | 2.95 ± 0.44
34 | KFLIWDTAGQERFRALAPMYYRGS [RAB22A] | 2.39 ± 0.23 | 2.55 ± 0.33
35 | EQREWVLKSSILIAMAVYTYLRLI [INTS3] | 2.6 ± 0.59 | 2.59 ± 0.45
36 | IKEVVEKREACHCEEVKMTVASEA [FAN1] | 4.89 ± 0.25 | 4.95 ± 0.17
37 | AQTPLHVAAETGHTSTARLLLHRG [RIPK4] | 3.89 ± 0.12 | 3.91 ± 0.38
38 | GYTFDYAYDWVGRPIPTPVGSVHV [CSNK1G1] | 2.13 ± 0.44 | 2.14 ± 0.4
39 | DPEVFKEMMRFIYTGRAPNLDKMA [SPOPL] | 2.25 ± 0.32 | 2.41 ± 0.26
40 | TIEELQQKILCAKAENARLVVNID [KRT34] | 3.37 ± 0.31 | 3.41 ± 0.48
41 | LATRSNEKQELQELNDRFANFIEK [PRPH] | 4.43 ± 0.25 | 4.37 ± 0.095
42 | GTGGEEVEALQLSARWLEVLRTYL [FBXO33] | 2.41 ± 0.23 | 2.32 ± 0.31
43 | DRECKLPPPSAPASEYCPGKLSWG [WDR88] | 3.79 ± 0.13 | 3.96 ± 0.36
44 | LKTSEVTQHLPRECLPENLGGYVK [PTPN9] | 3.97 ± 0.38 | 3.73 ± 0.56
